B1: M13 filamentous bacteriophage (construct not stated) (other)
chain: AETVESCLAKPHTENSFTNVWKDDKTLDRYANYEGCLWNATGVVVCTGDETQCYGTWVPIGLAIPENEGGGSEGGGSEGGGSEGGGTKPPEYGDTPIPGYTYINPLDGTYPPGTEQNPANPNPSLEESQPLNTFMFQNNRFRNRQGALTVYTGTVTQGTDPVKTYYQYTPVSSKAMYDAYWNGKFRDCAFHSGFNEDPFVCEYQGQSSDLPQPPVNAGGGSGGGSGGGSEGGGSEGGGSEGGGSEGGGSGGGSGSGDFDYEKMANANKGAMTENADENALQSDAKGKLDSVATDYGAAIDGFIGDVSGLANGNGATGDFAGSNSQMAQVGDGDNSPLMNNFRQYLPSLPQSVECRPFVFSAGKPYEFSIDCDKINLFRGVFAFLLYVATFMYVFSTFANILRNKES
notes: Whole phage particle; also called M13 phage; wildtype M13
B2: recombinant soluble g3p fragment comprising the N1 and N2 domains, rs-g3p(N1N2), Construct 3 (other)
chain: MAETVESCLAKSHTENSFTNVWKDDKTLDRYANYEGCLWNATGVVVCTGDETQCYGTWVPIGLAIPENEGGGSEGGGSEGGGSEGGGTKPPEYGDTPIPGYTYINPLDGTYPPGTEQNPANPNPSLEESQPLNTFMFQNNRFRNRQGALTVYTGTVTQGTDPVKTYYQYTPVSSKAMYDAYWNGKFRDCAFHSGFNEDLFVCEYQGQSSDLPQPPVNAPSGHHHHHH

Experiments:
[1] = target: T1, amyloid-β 1-42 fibers (fAβ42) (human, UniProt P05067 672-713); experiment: SPR, fAβ immobilized on the chip, 10^14 phage/mL
T1 construct: domain: amyloid-β 1-42; Aggregated fibrillar state; also called Aβ fibrils; Aβ fibers
T1 sequence (P05067 672-713 limits assumed): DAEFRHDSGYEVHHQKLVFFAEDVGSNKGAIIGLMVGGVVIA

[2] = target: T1, amyloid-β 1-42 fibers (fAβ42); experiment: cell-based or functional assay

Binder | Kd [1] | ThT fluorescence assay, IC50 [2]
B1 | ~4 nM | 
B2 |  | ~20 nM

Source: patent US20140335016A1 (PROCLARA BIOSCIENCES, published 2014)
